Results from the supplement of paper PMC12764529.
± gives the half width of the 95% confidence interval.

Key:
[1] = folding stability dG unfold from trypsin proteolysis; higher = more stable
In short: (§1)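 Only designs with AlphaFold2 dimer inter-PAE above 15 were retained; each was a mini-protein under 80 residues with no cysteine, in a PA-tagged cDNA display construct. After digestion with trypsin and chymotrypsin and sequencing, K50 was inferred by Bayesian fitting of counts, and unfolding free energy was derived per protease or combined against a sequence-predicted unfolded-state K50 and a shared folded-state K50.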

[2] = folding stability dG unfold from chymotrypsin proteolysis; higher = more stable
In short: as §1

[3] = folding stability dG unfold (combined trypsin and chymotrypsin); higher = more stable
In short: as §1

Sequence | folding stability dG unfold [1] | folding stability dG unfold [2] | folding stability dG unfold [3]
SAGGSAGGSAGGMAENLSPEQLRELAKELGLSEEDLEPGQVVRFRLPNGEVIEVRVEDESAGGSAGGSAGGS [r10_623_TrROS_Hall] | 1.29 ± 0.033 kcal/mol | 0.372 ± 0.13 kcal/mol | 0.913 ± 0.067 kcal/mol
SAGGSAGGSAGGMEKLSETVTETVEVTLTSGDKTYTFTVTTTTVVLPDGTVETLEVTLQPSAGGSAGGSAGG [r11_95_JUSTAS] | 2.05 ± 0.1 kcal/mol | 3.42 ± 0.12 kcal/mol | 2.81 ± 0.14 kcal/mol
SAGGSAGGSAGGMEVYRNPETGTLVFLFELEDGSYVAVTINPDGSVEVRVFDKDGRWVPSAGGSAGGSAGGS [r10_299_TrROS_Hall] | 2.61 ± 0.064 kcal/mol | 3.507 ± 0.027 kcal/mol | 3.03 ± 0.081 kcal/mol
SAGGSAGGSAGGMGPPPIETIVIEKPLSEEEYEALKKAYPDKKVTVSEIPGTPNKIATIESAGGSAGGSAGG [r17_254_JUSTAS] | 0.363 ± 0.042 kcal/mol | -0.192 ± 0.098 kcal/mol | 0.0243 ± 0.19 kcal/mol
SAGGSAGGSAGGMIAVLTYKDGTVRDFGPTASLEEILSIPADEIVRIEVRPVLPELGDLLSAGGSAGGSAGG [r7_190_TrMRF] | 0.59 ± 0.018 kcal/mol | -0.859 ± 0.31 kcal/mol | 0.251 ± 0.07 kcal/mol
SAGGSAGGSAGGMIIIIPTPKGTVALVIDENSDKPTLIEASPDEIPDLIEKGAKEVIILPSAGGSAGGSAGG [r7_266_TrMRF] | 0.363 ± 0.072 kcal/mol | 1.22 ± 0.052 kcal/mol | 0.932 ± 0.13 kcal/mol
SAGGSAGGSAGGMIIKINGKYYKIKKIEKNPNGKYTITTENGKKYEFKNVKIFSEEELKSAGGSAGGSAGGS [r10_1151_TrROS_Hall] | 3.05 ± 0.18 kcal/mol | 4.19 ± 0.061 kcal/mol | 3.86 ± 0.18 kcal/mol
SAGGSAGGSAGGMIKTKDGKVLEFKSLEEALAALKELGVDEVEIEELEPEGVVKVKVKPSAGGSAGGSAGGS [r10_1191_TrROS_Hall] | 0.301 ± 0.03 kcal/mol | 1.34 ± 0.039 kcal/mol | 1.11 ± 0.11 kcal/mol
SAGGSAGGSAGGMIKVTFKIPGKNETIEIDFDSEEELEEKFKELREKLGYNIEVVEIEESAGGSAGGSAGGS [r10_1087_JUSTAS] | 2.19 ± 0.19 kcal/mol | 2.19 ± 0.12 kcal/mol | 1.92 ± 0.2 kcal/mol
SAGGSAGGSAGGMILVQDKKTKKWYEIKPGESLENLEFPEGVKEVRIYVFNEDGELVELDSAGGSAGGSAGG [r7_763_TrROS_Hall] | 1.39 ± 0.043 kcal/mol | 2.45 ± 0.027 kcal/mol | 2.28 ± 0.12 kcal/mol
SAGGSAGGSAGGMITTGITVSATDPNSSTSYTVTVPSSVPSSTFPANTAVGSAALAKLLASAGGSAGGSAGG [r17_412_JUSTAS] | -0.554 ± 0.19 kcal/mol | -0.225 ± 0.25 kcal/mol | -0.449 ± 0.21 kcal/mol
SAGGSAGGSAGGMITVEVEVPGDEAEAEARREAIAEELAAEGHEDVPITVTFVSPEEAASAGGSAGGSAGGS [r10_1099_JUSTAS] | 1.28 ± 0.11 kcal/mol | 0.388 ± 0.047 kcal/mol | 0.64 ± 0.36 kcal/mol
SAGGSAGGSAGGMIVIEVERKEGEEERKEVIVIPNDPEKAEAEAKKLAEEGPVEKVTIKKESAGGSAGGSAG [r3_310_JUSTAS] | 0.243 ± 0.11 kcal/mol | 1.3 ± 0.066 kcal/mol | 1.04 ± 0.28 kcal/mol
SAGGSAGGSAGGMIVTLPKTGEVLLVPEEEIEAFLAALPESFPKEDVEVYEYSPEEEPLSAGGSAGGSAGGS [r10_13_JUSTAS] | 0.566 ± 0.044 kcal/mol | 0.0515 ± 0.17 kcal/mol | 0.253 ± 0.13 kcal/mol
SAGGSAGGSAGGMKIIKLEDDYYLIPFDSPEQLKAYTDIFEKLGLPVVVLPDGRLLVKGSAGGSAGGSAGGS [r10_1027_TrMRF] | 2.39 ± 0.053 kcal/mol | 2.52 ± 0.026 kcal/mol | 2.49 ± 0.054 kcal/mol
SAGGSAGGSAGGMKIPPSLLTEVKESIVPTPEGSTKITTVTAKVPGTGEVVTYTLTTPVASAGGSAGGSAGG [r7_348_JUSTAS] | 0.0354 ± 0.032 kcal/mol | -0.744 ± 0.31 kcal/mol | -0.242 ± 0.11 kcal/mol
SAGGSAGGSAGGMKKKKLKEGVEIEFFREGDYLYVTTKIPETGKEETKKVKKVPKDIPLSAGGSAGGSAGGS [r10_240_JUSTAS] | -0.245 ± 0.45 kcal/mol | 0.298 ± 0.14 kcal/mol | 0.22 ± 0.23 kcal/mol
SAGGSAGGSAGGMKLVITLKDPNSDKTYTVTLPIEDKSPEEVIQEIEEKLGVEVVEVKPESAGGSAGGSAGG [r7_590_JUSTAS] | 2.06 ± 0.083 kcal/mol | 2.04 ± 0.021 kcal/mol | 2.02 ± 0.06 kcal/mol

Sequence | folding stability dG unfold [1] | folding stability dG unfold [2] | folding stability dG unfold [3]
SAGGSAGGSAGGMKPGEKPEVEYRVRIYDADTGEWREVPLEDLKKLKLPPGAVVEIEKVSAGGSAGGSAGGS [r10_1121_TrROS_Hall] | 2.01 ± 0.14 kcal/mol | 3.42 ± 0.067 kcal/mol | 2.93 ± 0.15 kcal/mol
SAGGSAGGSAGGMKVIKLPGLTVEIEPGYSPSEPVKITITDPKTGKVTEYEIKIPPEELPSAGGSAGGSAGG [r7_834_JUSTAS] | 0.915 ± 0.052 kcal/mol | 1.26 ± 0.021 kcal/mol | 1.13 ± 0.042 kcal/mol
SAGGSAGGSAGGMKVYRIGPDLYLVENEDGSLRIYNRDTGKVFTFKPGETITITIPPELLSAGGSAGGSAGG [r7_299_TrROS_Hall] | 2.18 ± 0.075 kcal/mol | 2.79 ± 0.059 kcal/mol | 2.7 ± 0.11 kcal/mol
SAGGSAGGSAGGMLSTNVTRTITLTYFDPNGSKPIETQTVTVTTFVEIFQEPVGNWTAASAGGSAGGSAGGS [r10_50_JUSTAS] | 0.789 ± 0.08 kcal/mol | 0.759 ± 0.21 kcal/mol | 0.786 ± 0.15 kcal/mol
SAGGSAGGSAGGMLTIVEVLSKDPEKPVYTVKVKFPDGSEKTLEVPPELLSNPEKEIVLESAGGSAGGSAGG [r7_117_JUSTAS] | 1.23 ± 0.072 kcal/mol | 1.44 ± 0.07 kcal/mol | 1.47 ± 0.12 kcal/mol
SAGGSAGGSAGGMLVDPSTNTVTINLPPNTTLTFNYPDSTLTVTVPANETLTVTFPLTSSAGGSAGGSAGGS [r10_464_JUSTAS] | 2.19 ± 0.075 kcal/mol | 0.947 ± 0.049 kcal/mol | 1.67 ± 0.1 kcal/mol
SAGGSAGGSAGGMNIKVLKEFEFETEDGVPVRYLLVDAGGEEGETVVIKETPTSIEIIPFSAGGSAGGSAGG [r7_960_TrMRF] | 0.856 ± 0.025 kcal/mol | 0.511 ± 0.17 kcal/mol | 0.694 ± 0.11 kcal/mol
SAGGSAGGSAGGMNPIVIKKTYPVKSGSFTVTLPEGVTPVSFEKDPNSDTITIEVLVEPSAGGSAGGSAGGS [r10_906_JUSTAS] | 0.63 ± 0.067 kcal/mol | -0.713 ± 0.37 kcal/mol | 0.0999 ± 0.3 kcal/mol
SAGGSAGGSAGGMPGVTTTSTTTTTLPNGTVVTTTTTTVLLPTGTTVTVTVTTTTSATTSSAGGSAGGSAGG [r11_274_JUSTAS] | 2.77 ± 0.11 kcal/mol | 2.61 ± 0.088 kcal/mol | 2.68 ± 0.12 kcal/mol
SAGGSAGGSAGGMPIPIIVIPTPPNGNFTPEQIKEVAEKLNDPVVLTEESDNSRVILVGSAGGSAGGSAGGS [r10_642_TrMRF] | 0.928 ± 0.029 kcal/mol | -0.135 ± 0.08 kcal/mol | 0.519 ± 0.16 kcal/mol
SAGGSAGGSAGGMPVLVNIELPIPGTNETLTLEVEAEGPGGEEVEKEAQETAEKVLEESSAGGSAGGSAGGS [r10_863_JUSTAS] | 1.58 ± 0.1 kcal/mol | 1.79 ± 0.068 kcal/mol | 1.72 ± 0.11 kcal/mol
SAGGSAGGSAGGMREIAREIWEEYNNPVTIRIRNPNGKHEPFRFPDDPEDIPGWDIDDITSAGGSAGGSAGG [r7_998_TrROS] | -0.831 ± 0.3 kcal/mol | 0.79 ± 0.098 kcal/mol | 0.463 ± 0.082 kcal/mol
SAGGSAGGSAGGMREVIRRPEASGEVTVEPLPEDERRPVDFGSDGVVLWREGDEVVVEPSAGGSAGGSAGGS [r10_817_JUSTAS] | 0.00105 ± 0.087 kcal/mol | 0.72 ± 0.043 kcal/mol | 0.562 ± 0.08 kcal/mol
SAGGSAGGSAGGMRKYLVTLKPPNGPVTRYILPSEEEIKEFVAPLNAEYEVTPLSEDVPPSAGGSAGGSAGG [r7_456_JUSTAS] | 0.0557 ± 0.1 kcal/mol | 0.72 ± 0.072 kcal/mol | 0.515 ± 0.088 kcal/mol
SAGGSAGGSAGGMSFPVSSVEYRKDPNSDTPLVFITLPDGTVIIERLDTGTSSVVPVSQLSAGGSAGGSAGG [r11_922_JUSTAS] | 1.12 ± 0.037 kcal/mol | 1.3 ± 0.15 kcal/mol | 1.21 ± 0.067 kcal/mol
SAGGSAGGSAGGMSITFTAPDGSKITATIDPDGNVLVEVHLGDKPYYVKGPVETLLKNAPSAGGSAGGSAGG [r7_178_TrMRF] | 0.325 ± 0.027 kcal/mol | 0.904 ± 0.1 kcal/mol | 0.719 ± 0.07 kcal/mol
SAGGSAGGSAGGMSITISVPEKTATIEIPGLGKTITIPPGETITVPIPNVPPFKITTEPPSAGGSAGGSAGG [r11_939_JUSTAS] | 0.76 ± 0.059 kcal/mol | 0.854 ± 0.044 kcal/mol | 0.732 ± 0.086 kcal/mol
SAGGSAGGSAGGMTIVLNIPKEELTEEEIKKLKESLPSDNPVKIIVKPKPPRKFYPKSTISAGGSAGGSAGG [r7_979_JUSTAS] | 0.605 ± 0.024 kcal/mol | 1.12 ± 0.048 kcal/mol | 0.925 ± 0.065 kcal/mol
